The values that follow come from patent US20250135018A1.

Common to all, as to assay: cell-based or functional assay
One experiment addresses CD48 (UniProt P09326).
A further experiment concerns the target NTB-A (UniProt Q96DU3).
The target in another experiment is T1, CD70 (UniProt P32970).
T1 sequence (looked up): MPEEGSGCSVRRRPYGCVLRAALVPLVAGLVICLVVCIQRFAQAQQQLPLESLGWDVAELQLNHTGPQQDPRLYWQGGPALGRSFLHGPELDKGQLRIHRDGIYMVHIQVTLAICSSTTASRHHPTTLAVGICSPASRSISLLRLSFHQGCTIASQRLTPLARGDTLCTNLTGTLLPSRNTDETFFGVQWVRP

CD48, sequence (P09326 27-220 limits assumed): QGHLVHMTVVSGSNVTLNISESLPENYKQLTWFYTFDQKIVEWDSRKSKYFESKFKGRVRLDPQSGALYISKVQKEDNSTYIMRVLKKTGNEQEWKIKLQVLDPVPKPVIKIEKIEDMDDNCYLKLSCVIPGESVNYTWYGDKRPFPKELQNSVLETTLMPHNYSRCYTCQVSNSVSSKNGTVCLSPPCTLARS
NTB-A, sequence (Q96DU3 22-332 limits assumed): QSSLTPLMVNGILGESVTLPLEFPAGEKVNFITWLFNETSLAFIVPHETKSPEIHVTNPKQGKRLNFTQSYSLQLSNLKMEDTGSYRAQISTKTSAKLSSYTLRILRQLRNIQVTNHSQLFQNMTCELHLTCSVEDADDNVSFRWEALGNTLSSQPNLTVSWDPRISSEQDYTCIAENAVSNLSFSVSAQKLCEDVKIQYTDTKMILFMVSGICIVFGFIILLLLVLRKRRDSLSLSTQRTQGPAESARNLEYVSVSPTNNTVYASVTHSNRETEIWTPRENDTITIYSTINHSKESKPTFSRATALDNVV

In the experiment with CD48, “Ag4-Ex_4-1: hMEM102 anti-CD48 antibody conjugated to MP-PEG4-Val-Lys-Gly-7-MAD-MDCPT, DAR=8” showed an IC50 of cell growth (CellTiter-Glo, 96 h), EJM cells of 0.053 µg/mL; an IC50 of cell growth (CellTiter-Glo, 96 h), KMM-1 cells of 0.018 µg/mL; an IC50 of cell growth (CellTiter-Glo, 96 h), MM.1R cells of 0.004 µg/mL; an IC50 of cell growth (CellTiter-Glo, 96 h), NCI-H929 cells of 0.006 µg/mL. In the experiment with CD48, this molecule showed an IC50 of cell growth (CellTiter-Glo, 96 h), U-266 cells of 0.017 µg/mL; a percent cells remaining at highest concentration tested, EJM cells of 27%; a percent cells remaining at highest concentration tested, KMM-1 cells of 16%; a percent cells remaining at highest concentration tested, MM.1R cells of 1%. In the experiment with CD48, this molecule came in with a percent cells remaining at highest concentration tested, NCI-H929 cells of 2% and a percent cells remaining at highest concentration tested, U-266 cells of 38%.

In the experiment with NTB-A, “Ag5-Ex_8-1a: h20F3 anti-NTB-A antibody conjugated to MC-GGFG-NHCH2-DXd(1), DAR=8” displayed an IC50 of cell growth (CellTiter-Glo, 96 h), EJM cells of 7.19 µg/mL; an IC50 of cell growth (CellTiter-Glo, 96 h), KMM-1 cells of 5.29 µg/mL; an IC50 of cell growth (CellTiter-Glo, 96 h), MM.1R cells of 0.177 µg/mL; an IC50 of cell growth (CellTiter-Glo, 96 h), NCI-H929 cells of 2.93 µg/mL. Also, in the experiment with NTB-A, the IC50 of cell growth (CellTiter-Glo, 96 h), U-266 cells is over 10 µg/mL and the percent cells remaining at highest concentration tested, KMM-1 cells is 45%.

In the experiment with NTB-A, “Ag5-Ex_4-1: h20F3 anti-NTB-A antibody conjugated to MP-PEG4-Val-Lys-Gly-7-MAD-MDCPT, DAR=8” registered an IC50 of cell growth (CellTiter-Glo, 96 h), EJM cells of 0.15 µg/mL; an IC50 of cell growth (CellTiter-Glo, 96 h), KMM-1 cells of 0.177 µg/mL; an IC50 of cell growth (CellTiter-Glo, 96 h), MM.1R cells of 0.005 µg/mL; an IC50 of cell growth (CellTiter-Glo, 96 h), NCI-H929 cells of 0.08 µg/mL. In the experiment with NTB-A, this molecule showed an IC50 of cell growth (CellTiter-Glo, 96 h), U-266 cells of 0.097 µg/mL; a percent cells remaining at highest concentration tested, EJM cells of 31%; a percent cells remaining at highest concentration tested, KMM-1 cells of 16%; a percent cells remaining at highest concentration tested, MM.1R cells of 0%. In the experiment with NTB-A, this molecule gave a percent cells remaining at highest concentration tested, NCI-H929 cells of 2% and a percent cells remaining at highest concentration tested, U-266 cells of 28%.

On to “Ag4-Ex_8-1a: hMEM102 anti-CD48 antibody conjugated to MC-GGFG-NHCH2-DXd(1), DAR=8”, for which, in the experiment with CD48, the IC50 of cell growth (CellTiter-Glo, 96 h), EJM cells is 2.79 µg/mL; the IC50 of cell growth (CellTiter-Glo, 96 h), KMM-1 cells stood at 0.075 µg/mL; the IC50 of cell growth (CellTiter-Glo, 96 h), MM.1R cells is 0.009 µg/mL; the IC50 of cell growth (CellTiter-Glo, 96 h), NCI-H929 cells was determined as 0.009 µg/mL. In the experiment with CD48, this molecule showed an IC50 of cell growth (CellTiter-Glo, 96 h), U-266 cells of over 10 µg/mL; a percent cells remaining at highest concentration tested, EJM cells of 0%; a percent cells remaining at highest concentration tested, KMM-1 cells of 34%; a percent cells remaining at highest concentration tested, MM.1R cells of 0%. This molecule also gave a percent cells remaining at highest concentration tested, NCI-H929 cells with CD48 of 3%.

B1: Ag3-Ex_4-1: h1F6 anti-CD70 antibody conjugated to MP-PEG4-Val-Lys-Gly-7-MAD-MDCPT, DAR=8 (antibody, INN chains, looked up, V domains shown)
VH: QVQLVQSGAEVKKPGASVKVSCKASGYTFTNYGMNWVRQAPGQGLKWMGWINTYTGEPTYADAFKGRVTMTRDTSISTAYMELSRLRSDDTAVYYCARDYGDYGMDYWGQGTTVTVSS
VL: DIVMTQSPDSLAVSLGERATINCRASKSVSTSGYSFMHWYQQKPGQPPKLLIYLASNLESGVPDRFSGSGSGTDFTLTISSLQAEDVAVYYCQHSREVPWTFGQGTKVEIK
modifications: MP-PEG4-Val-Lys-Gly-MDCPT conjugate, DAR 8
In the experiment with CD70, B1 showed an IC50 of cell growth (CellTiter-Glo, 96 h), 786-O cells of 0.037 µg/mL; an IC50 of cell growth (CellTiter-Glo, 96 h), Caki-1 cells of 0.036 µg/mL; an IC50 of cell growth (CellTiter-Glo, 96 h), Raji cells of 1.13 µg/mL; an IC50 of cell growth (CellTiter-Glo, 96 h), UM-RC-3 cells of 0.016 µg/mL. In the experiment with CD70, the percent cells remaining at highest concentration tested, 786-O cells was found to be 18%; the percent cells remaining at highest concentration tested, Caki-1 cells was determined as 24%; the percent cells remaining at highest concentration tested, Raji cells is 45%; the percent cells remaining at highest concentration tested, UM-RC-3 cells was determined as 30%.

B2: Ag3-Ex_8-1a: h1F6 anti-CD70 antibody conjugated to MC-GGFG-NHCH2-DXd(1), DAR=8 (antibody, INN chains, looked up, V domains shown)
VH: B1 VH
VL: B1 VL
modifications: MC-GGFG-DXd conjugate, DAR 8
Take B2: in the experiment with CD70, the IC50 of cell growth (CellTiter-Glo, 96 h), 786-O cells is over 10 µg/mL; the IC50 of cell growth (CellTiter-Glo, 96 h), Caki-1 cells was over 10 µg/mL; the IC50 of cell growth (CellTiter-Glo, 96 h), Raji cells was determined as 5.56 µg/mL; the IC50 of cell growth (CellTiter-Glo, 96 h), UM-RC-3 cells came to 0.065 µg/mL. In the experiment with CD70, this molecule gave a percent cells remaining at highest concentration tested, 786-O cells of 54%; a percent cells remaining at highest concentration tested, Caki-1 cells of 68%; a percent cells remaining at highest concentration tested, UM-RC-3 cells of 40%.
